Experimental findings from patent US20200308575A1 (TWIST BIOSCIENCE, published 2020) are described below.

The chains are these.
B1: PD1-48 (antibody, V domains shown)
VH: EVQLVESGGGLVQPGRSLRLSCAASGFTFDDYALHWVRQAPGKDLEWVSGISWNSGSQGYADSVKGRFTISRDNAKNSLYLQMNSLRAEDTALYYCVREKGPGLTGSTADYYGLDAWGQGTMVTVSS
B2: PD1-22 (antibody, V domains shown)
VH: EVQLVESGGGLVQPGRSLRLSCAASGFTFDDYAMHWVRQAPGKDLEWVSGISWNGGSMGYAASVKGRFTISRDNAKNSLYLQMNSLRAEDTALYYCVREKGPGLTGSTADYYGLDAWGQGTMVTVSS
B3: PD1-32 (antibody, V domains shown)
VH: EVQLVESGGGLVQPGRSLRLSCAASGFTFDDYAMHWVRQAPGKDLEWVSGISWNSGSMGYADSVKGRFTISRDNAKNSLYLQMNSLRAEDTALYYCVREKGPGLTGSTADYYGLDAWGQGTMVTVSS
B4: PD1-50 (antibody, V domains shown)
VH: EVQLVESGGGLVQPGRSLRLSCAASGFTFDDYAFHWVRQAPGKDLEWVSGISWNAGSQGYADSVKGRFTISRDNAKNSLYLQMNSLRAEDTALYYCVREKGPGLTGSTADYYGLDAWGQGTMVTVSS
B5: PD1-24 (antibody, V domains shown)
VH: EVQLVESGGGLVQPGRSLRLSCAASGFTFDDYAMHWVRQAPGKDLEWVSGISWNSGSMGYAASVKGRFTISRDNAKNSLYLQMNSLRAEDTALYYCVREKGPGLTGSTADYYGLDAWGQGTMVTVSS
B6: PD1-49 (antibody, V domains shown)
VH: EVQLVESGGGLVQPGRSLRLSCAASGFTFDDYAFHWVRQAPGKDLEWVSGISWNSGSQGYADSVKGRFTISRDNAKNSLYLQMNSLRAEDTALYYCVREKGPGLTGSTADYYGLDAWGQGTMVTVSS
B7: PD1-39 (antibody, V domains shown)
VH: EVQLVESGGGLVQPGRSLRLSCAASGFTFDDYALHWVRQAPGKDLEWVSGISWNGGSYGYADSVKGRFTISRDNAKNSLYLQMNSLRAEDTALYYCVREKGPGLTGSTADYYGLDAWGQGTMVTVSS
B8: PD1-20 (antibody, V domains shown)
VH: EVQLVESGGGLVQPGRSLRLSCAASGFTFDDYAMHWVRQAPGKDLEWVSGISWNGGSMGYADSVKGRFTISRDNAKNSLYLQMNSLRAEDTALYYCVREKGPGLTGSTADYYGLDVWGQGTMVTVSS
B9: PD1-44 (antibody, V domains shown)
VH: EVQLVESGGGLVQPGRSLRLSCAASGFTFDDYALHWVRQAPGKDLEWVSGISWNSGSYGYADSVKGRFTISRDNAKNSLYLQMNSLRAEDTALYYCVREKGPGLTGSTADYYGLDAWGQGTMVTVSS
B10: PD1-21 (antibody, V domains shown)
VH: EVQLVESGGGLVQPGRSLRLSCAASGFTFDDYAMHWVRQAPGKDLEWVSGISWNGGSMGYAASVKGRFTISRDNAKNSLYLQMNSLRAEDTALYYCVREKGPGLTGSTADYYGLDVWGQGTMVTVSS
B11: PD1-38 (antibody, V domains shown)
VH: EVQLVESGGGLVQPGRSLRLSCAASGFTFDDYALHWVRQAPGKDLEWVSGISWNGGSMGYADSVKGRFTISRDNAKNSLYLQMNSLRAEDTALYYCVREKGPGLTGSTADYYGLDAWGQGTMVTVSS
B12: PD1-23 (antibody, V domains shown)
VH: QVQLVQSGAEVKKPGASVKVSCKASGYPFTSYGISWVRQAPGQGLEWMGWISAYNGNTNYAQKLQGRVTMTTDTSTSTAYMELRSLRSDDTAVYYCARDVDYSSGSGYWGQGTLVTVSS
VL: SYELMQPPSVSVSPGQTARITCSGDALPKQYAYWYQQKPGQAPVLVIYKDTERPSGIPERFSGSSSGTTVTLTISGVQAEDEADYYCQSADNSITYRVFGGGTKLTVL
notes: IgG in the assay
B13: PD1-43 (antibody, V domains shown)
VH: QVQLVQSGAEVKKPGASVKVSCKASGYTFSNYGISWVRQAPGQGLEWMGWISAYSGNTKYAQKLQGRVTMTTDTSTSTAYMELRSLRSDDTAVYYCARDADYASGSGYWGQGTLVTVSS
VL: SYELMQPPSVSVSPGQTARITCSGDALPRQYAHWYQQKPGQAPVLVIYKDNERPSGIPERFSGSSSGTTVTLTISGVQAEDEADYYCQSADTSTIYRVFGGGTKLTVL
notes: IgG in the assay
B14: PD1-30 (antibody, V domains shown)
VH: QVQLVQSGAEVKKPGASVKVSCKASGYTFNNYGVSWVRQAPGQGLEWMGWVSAYSGNTNYAQKLQGRVTMTTDTSTSTAYMELRSLRSDDTAVYYCARDADYASGSGYWGQGTLVTVSS
VL: SYELMQPPSVSVSPGQTARITCSGDALSNQYTYWYQQKPGQAPVLVIYKDKKRPSGIPERFSGSSSGTTVTLTISGVQAEDEADYYCQSADNSITYRVFGGGTKLTVL
notes: IgG in the assay
B15: PD1-11 (antibody, V domains shown)
VH: QVQLVQSGAEVKKPGASVKVSCKASGYTFSNYGFSWVRQAPGQGLEWMGWISPYSGNTKYAQKLQGRVTMTTDTSTSTAYMELRSLRSDDTAVYYCARDADYSIGSGYWGQGTLVTVSS
VL: SYELMQPPSVSVSPGQTARITCSGDALPRQYAHWYQQKPGQAPVLVIYKDNVRPSGIPERFSGSSSGTTVTLTISGVQAEDEADYYCQSADTSTIYRVFGGGTKLTVL
notes: IgG in the assay
B16: PD1-10 (antibody, V domains shown)
VH: QVQLVQSGAEVKKPGASVKVSCKASGYRFTSYGISWVRQAPGQGLEWMGWISAYNGNTNYAQKLQGRVTMTTDTSTSTAYMELRSLRSDDTAVYYCARDADYASGSGYWGQGTLVTVSS
VL: SYELMQPPSVSVSPGQTARITCSGDALPKQYAYWYQQKPGQAPVLVIYKDTERPSGIPERFSGSSSGTTVTLTISGVQAEDEADYYCQSADNSITYRVFGGGTKLTVL
notes: IgG in the assay
B17: PD1-17 (antibody, V domains shown)
VH: QVQLVQSGAEVKKPGASVKVSCKASGYTFSKYGISWVRQAPGQGLEWMGWISAYSGHTDYAQKLQGRVTMTTDTSTSTAYMELRSLRSDDTAVYYCARDFDYSSGSGYWGQGTLVTVSS
VL: SYELMQPPSVSVSPGQTARITCSGDALPEQYAYWYQQKPGQAPVLVIYKDTERSSGIPERFSGSSSGTTVTLTISGVQAEDEADYYCQSADNSITYRVFGGGTKLTVL
notes: IgG in the assay
B18: PD1-18 (antibody, V domains shown)
VH: QVQLVQSGAEVKKPGASVKVSCKASGYTFNNYGISWVRQAPGQGLEWMGWISAYSGHTDYAQKLQGRVTMTTDTSTSTAYMELRSLRSDDTAVYYCARDWDYSSGSGYWGQGTLVTVSS
VL: SYELMQPPSVSVSPGQTARITCSGDALSNQYGYWYQQKPGQAPVLVIYKDNERASGIPERFSGSSSGTTVTLTISGVQAEDEADYYCQSADNSITYRVFGGGTKLTVL
notes: IgG in the assay
B19: PD1-12 (antibody, V domains shown)
VH: QVQLVQSGAEVKKPGASVKVSCKASGYTFNTYGVSWVRQAPGQGLEWMGWISAYSGNTRYAQKLQGRVTMTTDTSTSTAYMELRSLRSDDTAVYYCARDFDYSSGSGYWGQGTLVTVSS
VL: SYELMQPPSVSVSPGQTARITCSGDALPKQYAYWYQQKPGQAPVLVIYKDTERPSGIPERFSGSSSGTTVTLTISGVQAEDEADYYCQSADNSITYRVFGGGTKLTVL
notes: IgG in the assay
B20: PD1-27 (antibody, V domains shown)
VH: QVQLVQSGAEVKKPGASVKVSCKASGYPFTNYGITWVRQAPGQGLEWMGWISAYNGNTNYAQKLQGRVTMTTDTSTSTAYMELRSLRSDDTAVYYCARDWDYSSGSGYWGQGTLVTVSS
VL: SYELMQPPSVSVSPGQTARITCSGDILPKQYAYWYQQKPGQAPVLVIYKDNERASGIPERFSGSSSGTTVTLTISGVQAEDEADYYCQSADNSITYRVFGGGTKLTVL
notes: IgG in the assay
B21: PD1-14 (antibody, V domains shown)
VH: QVQLVQSGAEVKKPGASVKVSCKASGYPFTNYGISWVRQAPGQGLEWMGWTSAYSGNTNYAQKLQGRVTMTTDTSTSTAYMELRSLRSDDTAVYYCARDFDYSSGSGYWGQGTLVTVSS
VL: SYELMQPPSVSVSPGQTARITCSGDALPKQYAYWYQQKPGQAPVLVIYKDTERRSGIPERFSGSSSGTTVTLTISGVQAEDEADYYCQSADNSITYRVFGGGTKLTVL
notes: IgG in the assay
B22: PD1-25 (antibody, V domains shown)
VH: QVQLVQSGAEVKKPGASVKVSCKASGYSFTRYGISWVRQAPGQGLEWMGWISPYSGNTKYAQKLQGRVTMTTDTSTSTAYMELRSLRSDDTAVYYCARDADYGSGSGYWGQGTLVTVSS
VL: SYELMQPPSVSVSPGQTARITCSGDALPDQYAYWYQQKPGQAPVLVIYKDYERPSGIPERFSGSSSGTTVTLTISGVQAEDEADYYCQSADNSITYRVFGGGTKLTVL
notes: IgG in the assay
B23: PD1-36 (antibody, V domains shown)
VH: QVQLVQSGAEVKKPGASVKVSCKASGYTFSSYGVSWVRQAPGQGLEWMGWISAYSGSTNYAQKLQGRVTMTTDTSTSTAYMELRSLRSDDTAVYYCARDAVYSSGSGYWGQGTLVTVSS
VL: SYELMQPPSVSVSPGQTARITCSGDALPNQYAHWYQQKPGQAPVLVIYKDTQRPSGIPERFSGSSSGTTVTLTISGVQAEDEADYYCQSADNSITYRVFGGGTKLTVL
notes: IgG in the assay
B24: PD1-42 (antibody, V domains shown)
VH: QVQLVQSGAEVKKPGASVKVSCKASGYTFNNFGISWVRQAPGQGLEWMGWISAYNGNTDYAQKLQGRVTMTTDTSTSTAYMELRSLRSDDTAVYYCARDMDYSSGSGYWGQGTLVTVSS
VL: SYELMQPPSVSVSPGQTARITCSGDALSNQYAYWYQQKPGQAPVLVIYKDTETPSGIPERFSGSSSGTTVTLTISGVQAEDEADYYCQSADNSITYRVFGGGTKLTVL
notes: IgG in the assay
B25: PD1-4 (antibody, V domains shown)
VH: QVQLVQSGAEVKKPGASVKVSCKASGYTFSTSGISWVRQAPGQGLEWMGWISAYNGNTNYAQKLQGRVTMTTDTSTSTAYMELRSLRSDDTAVYYCARDFDYSSGSGYWGQGTLVTVSS
VL: SYELMQPPSVSVSPGQTARITCSGDALPKQYAYWYQQKPGQAPVLVIYKDTERPSGIPERFSGSSSGTTVTLTISGVQAEDEADYYCQSADNSITYRVFGGGTKLTVL
notes: IgG in the assay

program cell death protein 1 (PD-1), sequence (Q15116 25-167 limits assumed): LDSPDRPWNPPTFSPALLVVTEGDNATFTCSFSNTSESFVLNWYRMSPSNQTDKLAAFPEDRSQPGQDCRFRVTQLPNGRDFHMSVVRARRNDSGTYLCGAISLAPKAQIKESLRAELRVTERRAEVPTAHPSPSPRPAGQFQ

The assay has as its target program cell death protein 1 (PD-1) (UniProt Q15116 25-167, limits assumed). The assay is described as follows: SPR (Carterra LSA), IgG, monovalent affinity.
Consider B1, for which binding was put at a Kd of 64.3 nM.

Regarding B2, the Kd (in general, the free concentration of one partner at which half of the binding sites on the other are occupied at equilibrium, for simple one-to-one binding) turned out to be 132 nM.

B3 displayed a Kd of 92.2 nM.

With B4, binding was put at a Kd of 87.5 nM. The Kd values of the last two molecules are within 1.5-fold of each other.

On to B5, for which the dissociation constant (Kd) was determined as 190 nM. Compared with the last molecule, the Kd is about 2.2-fold higher.

Take B6: the affinity, expressed as Kd, was 201 nM.

As to B7, the Kd was 240 nM.

For B8, the equilibrium dissociation constant (Kd) was 109 nM.

The molecule B9 had a Kd of 226 nM.

The molecule B10 came in with a dissociation constant Kd of 92 nM.

B11 had a Kd of 204 nM.

Molecule B12 came in with a Kd of 69.2 nM.

B13 came in with a Kd of 54.4 nM.

In the case of B14, the Kd came out at 68.8 nM.

Turning to B15, the dissociation constant (Kd) stood at 48.1 nM.

The molecule B16 had a Kd of 47.4 nM. This Kd and that of the molecule before are within 1.5-fold of each other.

Turning to B17, the equilibrium dissociation constant (Kd) stood at 60.1 nM.

In turn, B18 yielded a dissociation constant Kd of 68.4 nM.

B19 showed a dissociation constant (Kd) of 53.5 nM.

On to B20, for which the dissociation constant Kd is 88.6 nM.

Consider B21, for which the dissociation constant Kd amounted to 45.9 nM.

As for B22, the affinity, expressed as Kd, was 76 nM. Compared with the last molecule, the Kd is about 1.7-fold higher.

For the molecule B23, the Kd amounted to 84.9 nM.

As to B24, the Kd was found to be 53.6 nM.

The molecule B25 registered a Kd of 31.4 nM.
